Data from PMC3477299 (ACS chemical biology, 2012).
Read-outs that look alike come from different tables or passages of the source.

Assays:
[1] = target: T1, N-terminal His-tagged Human 4RON tau (human, UniProt P10636-6 1-383); assay: ELISA
[2] = target: T1, N-terminal His-tagged Human 4RON tau; assay: ELISA; remark: listed apart in the source

B1: Hsp90β (HSP90AB1) (natural protein)
chain: not shown
Work on B1 yielded an IC50 [1] of 59 µM and an IC50 [2] of 3000 nM.
